Measured values reported in patent US20260201033A1 (LTZ THERAPEUTICS, published 2026).
Read-outs that look alike come from different tables or passages of the source.

How the values were obtained:
[1] = target: T1, Human C-type lectin domain family 5 member A (CLEC5A), endogenous on human monocytes and M0 macrophages (human, UniProt Q9NY25 1-188); experiment: flow cytometry on human M0 macrophages, anti-human IgG PE
T1 construct: Endogenous CLEC5A on primary human monocytes and monocyte-derived M0 macrophages; also called MDL-1; M0 macrophages (CLEC5A+) cells
T1 sequence: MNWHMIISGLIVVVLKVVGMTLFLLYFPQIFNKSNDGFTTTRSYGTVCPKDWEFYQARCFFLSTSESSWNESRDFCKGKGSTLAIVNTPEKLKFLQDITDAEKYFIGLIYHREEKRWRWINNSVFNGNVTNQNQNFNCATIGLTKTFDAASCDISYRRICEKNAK

HER2 on SK-BR-3 cells [2] = target: T2, HER2 on SK-BR-3 cells (UniProt P04626 23-1255, limits assumed); experiment: cell-based or functional assay
HER2 on SK-BR-3 cells [3] = target: T2, HER2 on SK-BR-3 cells; experiment: cell-based or functional assay; remark: listed apart in the source
[4] = target: T3, CD79b on Ramos cells and on endogenous B cells of human PBMCs (human, UniProt P40259 29-229); experiment: cell-based or functional assay
T3 sequence (looked up): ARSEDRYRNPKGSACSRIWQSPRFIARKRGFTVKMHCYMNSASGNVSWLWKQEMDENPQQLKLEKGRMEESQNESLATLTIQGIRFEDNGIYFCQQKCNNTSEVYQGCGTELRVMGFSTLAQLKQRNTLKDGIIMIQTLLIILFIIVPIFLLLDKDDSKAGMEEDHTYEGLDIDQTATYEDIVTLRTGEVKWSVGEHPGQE

[5] = target: T3, CD79b on Ramos cells and on endogenous …; experiment: flow cytometry on Ramos cells (CD79b+), anti-human IgG PE, MFI (PE)
[6] = target: T3, CD79b on Ramos cells and on endogenous …; experiment: cell-based or functional assay; remark: listed apart in the source
[7] = target: T3, CD79b on Ramos cells and on endogenous …; experiment: cell-based or functional assay; remark: listed apart in the source
[8] = target: T3, CD79b on Ramos cells and on endogenous …; experiment: cell-based or functional assay; remark: listed apart in the source
[9] = target: T3, CD79b on Ramos cells and on endogenous …; experiment: cell-based or functional assay; remark: listed apart in the source
[10] = target: T3, CD79b on Ramos cells and on endogenous …; experiment: cell-based or functional assay; remark: listed apart in the source
[11] = target: T4, Human CLEC5A His Tag protein (ACROBiosystems, Cat #: CLA-H5243) (human, UniProt Q9NY25 28-188, limits assumed); experiment: ELISA, plate coated with human CLEC5A
T4 construct: Bought protein with a His tag; also called recombinant human CLEC5A protein
T4 sequence: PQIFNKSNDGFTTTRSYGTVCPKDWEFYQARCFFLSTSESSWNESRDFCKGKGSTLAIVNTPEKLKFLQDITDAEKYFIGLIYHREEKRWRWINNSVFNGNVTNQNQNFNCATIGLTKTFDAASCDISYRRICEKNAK

[12] = target: T5, mouse CLEC5A (R&D Systems, Cat #: 8438-CL-050) (mouse, UniProt Q9R007 26-190, limits assumed); experiment: ELISA, plate coated with mouse CLEC5A
T5 construct: Bought protein; also called recombinant mouse CLEC5A protein
T5 sequence: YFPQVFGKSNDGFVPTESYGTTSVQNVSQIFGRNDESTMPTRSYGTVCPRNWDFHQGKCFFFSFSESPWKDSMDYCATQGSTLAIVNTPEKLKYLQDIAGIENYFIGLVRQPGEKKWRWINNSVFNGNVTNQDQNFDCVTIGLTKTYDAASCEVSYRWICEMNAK

[13] = target: T1, Human C-type lectin domain family 5 …; experiment: flow cytometry on human M0 macrophages, anti-human IgG PE; remark: listed apart in the source
[14] = target: T6, human EGFR (ACROBiosystems, Cat #: EGR-H5222) (human, UniProt P00533 25-645); experiment: ELISA, plate coated with human EGFR
T6 construct: Bought protein; also called recombinant human EGFR protein

B1: HER2/5C7 (1+1 A) Fc-silenced (bispecific antibody, human IgG1, kappa, L234A L235A)
heavy 1: not shown
heavy 2: not shown
light 1: not shown
light 2: AIVMTQTPSSKSVPVGDTVTINCQASESVDRNNRLAWFQQKPGQPPKLLIYTTSTLASGVPSRFKGSGSGTHFTLTISDVVPDDAATYYCAGYRGAHTDGDAFGGGTEVVVKSSASTKGPSVFPLAPSSKSTSGGTAALGCLVKDYFPEPVTVSWNSGALTSGVHTFPAVLQSSGLYSLSSVVTVPSSSLGTQTYICNVNHKPSNTKVDKKVEPKSC
notes: also called HER2/5C7 (1+1 A) Fc-LALAPG
EC50 [1]: 1.49 nM | IC50 (nM), SK-BR-3 cell killing by M0 macrophages (E:T 5:1) (HER2 on SK-BR-3 cells [2]): 0.148 nM | IC50 (nM), SK-BR-3 cell killing by M0 macrophages in the presence of hIgG1 (HER2 on SK-BR-3 cells [3]): 0.00632 nM | IC50 (nM), SK-BR-3 cell killing by M0 macrophages in the presence of media (HER2 on SK-BR-3 cells [3]): 0.0481 nM | IC50 (nM), SK-BR-3 cell killing by M0 macrophages in the presence of plasma (HER2 on SK-BR-3 cells [3]): 0.433 nM

B2: CD79b/5C7 (2+2 B) Fc-optimized (bispecific antibody, human IgG1, kappa)
heavy: EQQLVETGGGLIQPGGSLRLSCAASGFTINIDYWISWVRQAPGKGLEWIGIIDPGDGTTYFAIWVSGRFTISFDNSKNTVYLQMNSLRAEDTAVYFCVREFSASAYQYDLWGPGTLVTVSSASTKGPSVFPLAPSSKSTSGGTAALGCLVKDYFPEPVTVSWNSGALTSGVHTFPAVLQSSGLYSLSSVVTVPSSSLGTQTYICNVNHKPSNTKVDKKVEPKSCDKTHTCPPCPAPELLAGPSVFLFPPKPKDTLMISRTPEVTCVVVDVSHEDPEVKFNWYVDGVEVHNAKTKPREEQYNSTYRVVSVLTVLHQDWLNGKEYKCKVSNKALPLPEEKTISKAKGQPREPQVYTLPPSRDELTKNQVSLTCLVKGFYPSDIAVEWESNGQPENNYKTTPPVLDSDGSFFLYSKLTVDKSRWQQGNVFSCSVMHEALHNHYTQKSLSLSPGGGGGSGGGGSGGGGSDIQMTQSPSSLSASVGDRVTITCQASESVDRNNRLAWFQQKPGKPPKLLIYTTSTLASGVPSRFSGSGSGTDFTLTISSLQPEDVATYYCAGYRGAHTDGDAFGCGTKVEIKGGGGSGGGGSGGGGSGGGGSEQQLVESGGGLVKPGGSLRLSCAASGFSFSRSSYMCWVRQAPGKCLEWIGCLSVGDGHTYYASWAKGRFTISKDSAKNSVYLQMNSLRAEDTAVYFCARAPSYSGDGGHGYDLWGPGTLVTVSS
light: ELVMTQSPATLSVSPGERATLSCRASEDIENYLAWYQQKPGQPPRLLIYRASTLSSGVPARFSGSGSGTEFTLTISSLQSEDFAVYYCQQGYRNSNVDNPFGGGTKVEIKRTVAAPSVFIFPPSDEQLKSGTASVVCLLNNFYPREAKVQWKVDNALQSGNSQESVTEQDSKDSTYSLSSTLTLSKADYEKHKVYACEVTHQGLSSPVTKSFNRGEC
IC50 (nM), Ramos cell killing by M1 macrophages, Donor 431 [4]: 0.002 nM | EC50 (read off the curve) [5]: ~1 nM | IC50 (nM), Ramos cell killing by M0 macrophages, Donor 022 [6]: 0.012 nM | IC50 (nM), Ramos cell killing by M0 macrophages, Donor 159 [6]: 0.001 nM | IC50 (nM), Ramos cell killing by M0 macrophages, Donor 161 [6]: 0.001 nM | IC50 (nM), Ramos cell killing by M0 macrophages, Donor 431 [6]: 0.002 nM | IC50 (nM), Ramos cell killing by PBMCs (test 2), Donor 234 [7]: 0.0298 nM | IC50 (nM), Ramos cell killing by PBMCs (test 2), Donor 431 [7]: 0.0168 nM | IC50 (nM), killing of endogenous B cells by PBMCs, Donor 234 [8]: 0.0156 nM | IC50 (nM), Ramos cell killing by PBMCs (test 3), Donor 281 [9]: 0.28 nM | IC50 (nM), Ramos cell killing by PBMCs (test 3), Donor 367 [9]: 0.0295 nM | IC50 (nM), Ramos cell killing by M2 macrophages, Donor 022 [10]: 0.006 nM | IC50 (nM), Ramos cell killing by M2 macrophages, Donor 431 [10]: 0.001 nM

B3: CD79b/5C7 (2+2 A) Fc-optimized (bispecific antibody, human IgG1, kappa)
heavy: EQQLVETGGGLIQPGGSLRLSCAASGFTINIDYWISWVRQAPGKGLEWIGIIDPGDGTTYFAIWVSGRFTISFDNSKNTVYLQMNSLRAEDTAVYFCVREFSASAYQYDLWGPGTLVTVSSASTKGPSVFPLAPSSKSTSGGTAALGCLVKDYFPEPVTVSWNSGALTSGVHTFPAVLQSSGLYSLSSVVTVPSSSLGTQTYICNVNHKPSNTKVDKKVEPKSCDKTHTCPPCPAPELLAGPSVFLFPPKPKDTLMISRTPEVTCVVVDVSHEDPEVKFNWYVDGVEVHNAKTKPREEQYNSTYRVVSVLTVLHQDWLNGKEYKCKVSNKALPLPEEKTISKAKGQPREPQVYTLPPSRDELTKNQVSLTCLVKGFYPSDIAVEWESNGQPENNYKTTPPVLDSDGSFFLYSKLTVDKSRWQQGNVFSCSVMHEALHNHYTQKSLSLSPGK
light: ELVMTQSPATLSVSPGERATLSCRASEDIENYLAWYQQKPGQPPRLLIYRASTLSSGVPARFSGSGSGTEFTLTISSLQSEDFAVYYCQQGYRNSNVDNPFGGGTKVEIKRTVAAPSVFIFPPSDEQLKSGTASVVCLLNNFYPREAKVQWKVDNALQSGNSQESVTEQDSKDSTYSLSSTLTLSKADYEKHKVYACEVTHQGLSSPVTKSFNRGECGGGGSGGGGSGGGGSDIQMTQSPSSLSASVGDRVTITCQASESVDRNNRLAWFQQKPGKPPKLLIYTTSTLASGVPSRFSGSGSGTDFTLTISSLQPEDVATYYCAGYRGAHTDGDAFGCGTKVEIKGGGGSGGGGSGGGGSGGGGSEQQLVESGGGLVKPGGSLRLSCAASGFSFSRSSYMCWVRQAPGKCLEWIGCLSVGDGHTYYASWAKGRFTISKDSAKNSVYLQMNSLRAEDTAVYFCARAPSYSGDGGHGYDLWGPGTLVTVSS
EC50 (read off the curve) [5]: ~0.9 nM | IC50 (nM), Ramos cell killing by M0 macrophages, Donor 100 [6]: 0.002 nM | IC50 (nM), Ramos cell killing by M0 macrophages, Donor 159 [6]: 0.001 nM | IC50 (nM), Ramos cell killing by M0 macrophages, Donor 161 [6]: 0.0013 nM | IC50 (nM), Ramos cell killing by M0 macrophages, Donor 233 [6]: 0.002 nM | IC50 (nM), Ramos cell killing by PBMCs (test 2), Donor 234 [7]: 0.0675 nM | IC50 (nM), killing of endogenous B cells by PBMCs, Donor 234 [8]: 0.0154 nM | IC50 (nM), Ramos cell killing by M2 macrophages, Donor 100 [10]: 0.001 nM | IC50 (nM), Ramos cell killing by M2 macrophages, Donor 233 [10]: 0.003 nM

B4: HER2/3A7 (1+1 A) Fc-silenced (bispecific antibody, human IgG1, kappa, L234A L235A)
heavy 1: not shown
heavy 2: not shown
light 1: not shown
light 2: AVVMTQTPASVEAAVGGTVTINCQASQRINNYLSWFQQKPGQPPKLLIYGAATLASGVPSRFKGSGSGTEYTLTISDLEPADAATYYCQCTYGIPSSNYGFGGGTEVVVKSSASTKGPSVFPLAPSSKSTSGGTAALGCLVKDYFPEPVTVSWNSGALTSGVHTFPAVLQSSGLYSLSSVVTVPSSSLGTQTYICNVNHKPSNTKVDKKVEPKSC
notes: also called HER2/3A7 (1+1 A) Fc-LALAPG
EC50 [1]: 0.611 nM | IC50 (nM), SK-BR-3 cell killing by M0 macrophages (E:T 5:1) (HER2 on SK-BR-3 cells [2]): 0.114 nM

B5: 6A5, chimeric rabbit/human IgG1 anti-CLEC5A antibody (Fc-silenced) (antibody, V domains shown)
VH: QQQLEESGGGLVKPGGTLTLTCTASGFSFSSSYYMCWVRQAPGKGLELIACIYSSSGRTWYATWVNGRFTISRSTSLNTVDLKMTSLTAADTATYFCARSYAGYGGYGYAYFNLWGPGTLVTVSS
VL: DIVMTQTPASVEAGVGGTVTIKCQASEDIYSSLAWYQQKAGQRPKLLIYDASTLASGVPSRFKGSGSGTEYTLTISGVQPDDAATYYCQNYYDSTGSGYGAAFGGGTEVVVK
notes: also called ch6A5
EC50 [11]: 0.31 nM | EC50 [12]: 0.12 nM | EC50 [13]: 9.8 nM

B6: Necitumumab (antibody, V domains shown)
VH: QVQLQESGPGLVKPSQTLSLTCTVSGGSISSGDYYWSWIRQPPGKGLEWIGYIYYSGSTDYNPSLKSRVTMSVDTSKNQFSLKVNSVTAADTAVYYCARVSIFGVGTFDYWGQGTLVTVSS
VL: EIVMTQSPATLSLSPGERATLSCRASQSVSSYLAWYQQKPGQAPRLLIYDASNRATGIPARFSGSGSGTDFTLTISSLEPEDFAVYYCHQYGSTPLTFGGGTKAEIK
EC50 [14]: 0.022 µg/mL
